Measured values reported in patent publication US20220324970A1 (Janssen / Centocor, published 2022).

Assays:
[1] = molecular target: T1, human pIgR extracellular domain (ECD) (human, UniProt P01833 19-638); assay: ECL (MSD), anti-VHH detection against anti-Fc detection
T1 construct: also called hpIgR ECD
Procedure: (§1) To check whether VHH recognizes a buried epitope on pIgR, EC₅₀ values were measured for VHH-mono-Fc molecules binding to hpIgR-ECD protein by electrochemiluminescence using two different detection antibodies, an anti-Fc antibody and an anti-VHH antibody. pIgR ECD (10 μg/ml in PBS) was coated on high-bind MSD plates for 2 hours at RT with 1000 rpm, incubated with blocking buffer for 1 hour at RT, incubated with VHH-mono-Fc molecules (increasing concentrations in PBS) for 2 hours at RT with 1000 rpm, washed 3× with PBT, incubated with ruthenylated secondary antibody (2 μg/ml in PBS) for 1 hour at RT with 1000 rpm, washed 3× with PBT and read plates in 40 ul reading buffer using the MSD imager. EC50 was calculated by fitting log VHH concentration versus log ECLU in Prism (Graphpad). The increase in EC₅₀ (>50-fold) due to anti-VHH detection was used as a measure to determine whether VHH recognized buried epitope on pIgR.

[2] = molecular target: T2, human pIgR extracellular domain 4-domain 5 (D4-D5) (human, UniProt P01833 350-565); assay: BLI (Octet RED384), 1:1 fit, 25 C, PBS
T2 construct: HIS-tagged construct made in HEK293 cells; also called hpIgR domains 4-5
T2 chain: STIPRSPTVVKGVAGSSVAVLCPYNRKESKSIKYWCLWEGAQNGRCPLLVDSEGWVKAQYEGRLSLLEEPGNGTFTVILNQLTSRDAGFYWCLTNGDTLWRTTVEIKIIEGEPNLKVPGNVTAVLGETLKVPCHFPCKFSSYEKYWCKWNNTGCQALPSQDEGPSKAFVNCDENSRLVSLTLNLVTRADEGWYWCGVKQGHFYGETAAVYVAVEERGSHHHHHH

[3] = molecular target: T1, human pIgR extracellular domain (ECD); assay: BLI (Octet RED384), 1:1 fit, 25 C, PBS
[4] = molecular target: T3, human pIgR extracellular domain 1-domain 2 (D1-D2) (human, UniProt P01833 19-240); assay: ECL (MSD) heat map, HIS-tagged construct captured via anti-HIS, anti-human-Fc detection
T3 construct: HIS-tagged construct made in HEK293 cells

hpIgR_D2-D3 = molecular target: T4, hpIgR_D2-D3; assay: as above
T4 construct: HIS-tagged construct from HEK293 cells; also called human pIgR extracellular domain 2-domain 3 (D2-D3); hD2-D3
T4 HIS-tagged domain construct: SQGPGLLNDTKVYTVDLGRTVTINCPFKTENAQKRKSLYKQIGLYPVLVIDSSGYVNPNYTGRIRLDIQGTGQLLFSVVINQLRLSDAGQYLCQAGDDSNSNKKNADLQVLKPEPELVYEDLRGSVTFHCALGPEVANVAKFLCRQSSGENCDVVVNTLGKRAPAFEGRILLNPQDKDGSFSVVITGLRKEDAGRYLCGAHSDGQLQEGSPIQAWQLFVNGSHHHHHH

[5] = molecular target: T1, human pIgR extracellular domain (ECD); assay: ECL (MSD), hpIgR-ECD coated, anti-Fc detection
Procedure: as §1

[6] = molecular target: T5, human pIgR, full-length, on cells (human, UniProt P01833 19-764); assay: cell-based or functional assay
[7] = molecular target: T6, human pIgR extracellular domain 5 (D5) (human, UniProt P01833 460-565); assay: ECL (MSD) heat map, HIS-tagged construct captured via anti-HIS, anti-human-Fc detection;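 note: VHH-mono-Fc molecules tested at 100 µg/ml for 2 h on captured His-tagged pIgR constructs (10 µg/ml), read-out as electrochemiluminescence units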
T6 construct: HIS-tagged construct made in HEK293 cells; also called hpIgR domain 5
Procedure: (§2) A meso-scale discovery (MSD) platform was used for conducting epitope mapping and epitope burial studies. To test the binding of VHH-mono-Fc molecules to purified pIgR protein constructs, Streptavidin MSD plates were coated with a biotinylated anti-HIS antibody (2 μg/ml in PBS) for 1 hour at RT with 1000 rpm, washed 3× with PBT (PBS+0.1% Tween-20), incubated with blocking buffer for 1 hour at RT, incubated with His-tagged pIgR proteins (10 μg/ml in PBS) for 2 hours at RT with 1000 rpm, washed 3× with PBT, incubated with VHH-mono-Fc molecules (100 μg/ml in PBS) for 2 hours at RT with 1000 rpm, washed 3× with PBT, incubated with ruthenylated-anti-human-Fc antibody (2 μg/ml in PBS) for 1 hour at RT with 1000 rpm, washed 3× with PBT and read plates in 40 ul reading buffer using the MSD imager. ECLU values were plotted as a heatmap.
(§3) Binding of VHH-mFc molecules were tested to immobilized pIgR constructs by the electrochemiluminescence method.

[8] = molecular target: T7, human pIgR extracellular domain 1 (D1) (human, UniProt P01833 19-127); assay: as above
T7 construct: HIS-tagged construct made in HEK293 cells; also called hpIgR domain-1
Procedure: as §2, §3

hpIgR_D3 = molecular target: T8, hpIgR_D3; assay: as above
T8 construct: HIS-tagged construct from HEK293 cells; also called human pIgR extracellular domain 3 (D3); hD3
Procedure: as §2, §3
T8 HIS-tagged domain construct: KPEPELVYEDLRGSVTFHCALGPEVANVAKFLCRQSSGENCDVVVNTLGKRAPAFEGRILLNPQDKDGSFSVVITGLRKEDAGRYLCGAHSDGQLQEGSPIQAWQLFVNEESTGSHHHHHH

[9] = molecular target: T9, human pIgR extracellular domain 2 (D2) (human, UniProt P01833 128-242); assay: as above
T9 construct: HIS-tagged construct made in HEK293 cells; also called hpIgR domain 2
Procedure: as §2, §3

[10] = molecular target: T5, human pIgR, full-length, on cells; assay: cell-based or functional assay; remark: listed apart in the source
[11] = molecular target: T1, human pIgR extracellular domain (ECD); assay: BLI; summary table, repeats Table 1
[12] = molecular target: T5, human pIgR, full-length, on cells; assay: flow cytometry on MDCK-hpIgR cells
[13] = molecular target: T5, human pIgR, full-length, on cells; assay: flow cytometry on MDCK-hpIgR cells; summary table, repeats Table 1
[14] = molecular target: T1, human pIgR extracellular domain (ECD); assay: BLI (Octet), VHH-mono-Fc and hpIgR ectodomain
[15] = molecular target: T1, human pIgR extracellular domain (ECD); assay: ECL (MSD), hpIgR-ECD coated, anti-VHH detection
Procedure: as §1

[16] = molecular target: T2, human pIgR extracellular domain …; assay: BLI (Octet RED384), 1:1 fit, 25 C, PBS; column kdis
[17] = molecular target: T1, human pIgR extracellular domain (ECD); assay: as above
[18] = molecular target: T5, human pIgR, full-length, on cells; assay: cell-based or functional assay; remark: listed apart in the source
[19] = molecular target: T5, human pIgR, full-length, on cells; assay: flow cytometry on MDCK-hpIgR cells; summary table, repeats Table 1; remark: listed apart in the source
Procedure: Flow Cytometry was performed as follows. To test whether VHH-mono-Fc molecules recognize cell-surface hpIgR, Madin-Darby canine kidney (MDCK) cells engineered to express full-length hpIgR were used. Cells were cultured in Dulbecco's modified Eagle's medium containing 10% fetal calf serum at 37° C. with 5% CO₂. Cells were split into equal fractions (≈70,000 cells) and incubated with increasing concentrations of VHH-mono-Fc molecules for 30 min at 4 C. […] Cells were washed twice with cold staining buffer, resuspended in running buffer and analyzed with an iQue Screener (IntelliCyt Corporation). Binding was assessed by RL1 (A647) Geomeans from the live cell population and EC50 was calculated by fitting log VHH concentration versus MFI in Prism (Graphpad).

[20] = molecular target: T1, human pIgR extracellular domain (ECD); assay: BLI; summary table, repeats Table 1; remark: listed apart in the source

T1 sequence (P01833 other isoform, or with tags, fused parts or gaps): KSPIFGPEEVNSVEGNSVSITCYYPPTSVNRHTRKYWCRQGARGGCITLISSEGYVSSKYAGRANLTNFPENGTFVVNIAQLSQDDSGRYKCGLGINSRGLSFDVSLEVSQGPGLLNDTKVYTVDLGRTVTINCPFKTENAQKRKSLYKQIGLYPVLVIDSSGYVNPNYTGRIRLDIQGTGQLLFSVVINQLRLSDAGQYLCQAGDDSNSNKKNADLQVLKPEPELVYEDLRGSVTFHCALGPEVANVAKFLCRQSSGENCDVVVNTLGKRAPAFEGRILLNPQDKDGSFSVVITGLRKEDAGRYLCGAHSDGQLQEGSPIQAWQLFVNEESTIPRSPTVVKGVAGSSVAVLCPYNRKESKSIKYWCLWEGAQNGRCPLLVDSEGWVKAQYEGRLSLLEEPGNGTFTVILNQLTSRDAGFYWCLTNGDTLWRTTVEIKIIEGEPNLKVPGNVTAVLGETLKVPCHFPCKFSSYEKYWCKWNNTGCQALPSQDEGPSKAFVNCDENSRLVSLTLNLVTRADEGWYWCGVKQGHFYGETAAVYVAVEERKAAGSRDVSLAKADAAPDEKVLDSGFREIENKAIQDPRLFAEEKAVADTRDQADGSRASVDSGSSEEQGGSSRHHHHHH
T5 sequence (P01833 19-764): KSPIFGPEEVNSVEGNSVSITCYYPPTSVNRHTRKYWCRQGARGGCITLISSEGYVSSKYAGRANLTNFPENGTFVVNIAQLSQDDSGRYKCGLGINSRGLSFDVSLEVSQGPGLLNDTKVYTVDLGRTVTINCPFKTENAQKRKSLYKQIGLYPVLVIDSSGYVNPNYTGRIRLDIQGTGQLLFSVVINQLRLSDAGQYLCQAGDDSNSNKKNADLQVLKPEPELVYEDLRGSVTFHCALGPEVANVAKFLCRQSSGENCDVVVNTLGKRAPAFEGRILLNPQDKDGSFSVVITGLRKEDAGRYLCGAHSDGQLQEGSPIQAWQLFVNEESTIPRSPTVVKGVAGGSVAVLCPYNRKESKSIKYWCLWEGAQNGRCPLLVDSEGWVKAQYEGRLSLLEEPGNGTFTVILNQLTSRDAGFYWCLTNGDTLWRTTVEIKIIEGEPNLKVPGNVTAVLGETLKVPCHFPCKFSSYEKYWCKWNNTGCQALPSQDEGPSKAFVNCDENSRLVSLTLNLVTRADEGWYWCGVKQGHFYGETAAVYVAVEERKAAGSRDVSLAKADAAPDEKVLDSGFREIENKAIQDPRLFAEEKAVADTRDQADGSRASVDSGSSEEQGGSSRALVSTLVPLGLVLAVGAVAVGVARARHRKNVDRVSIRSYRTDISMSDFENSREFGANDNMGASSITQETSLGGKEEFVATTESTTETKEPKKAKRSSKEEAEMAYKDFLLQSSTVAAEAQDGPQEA
T7 sequence (P01833 other isoform, or with tags, fused parts or gaps limits assumed): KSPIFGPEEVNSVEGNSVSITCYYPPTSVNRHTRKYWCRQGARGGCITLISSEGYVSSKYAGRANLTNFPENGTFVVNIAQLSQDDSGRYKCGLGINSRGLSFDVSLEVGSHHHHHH
T3 sequence (P01833 other isoform, or with tags, fused parts or gaps limits assumed): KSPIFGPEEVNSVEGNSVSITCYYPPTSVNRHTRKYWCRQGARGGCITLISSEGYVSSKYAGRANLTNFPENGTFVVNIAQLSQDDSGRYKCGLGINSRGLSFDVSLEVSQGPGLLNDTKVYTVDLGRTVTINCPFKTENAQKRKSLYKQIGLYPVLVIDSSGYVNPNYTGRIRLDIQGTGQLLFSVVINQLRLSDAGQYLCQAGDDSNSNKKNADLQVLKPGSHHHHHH

B1: VHH9-linker-mono-Fc protein (Fc fusion)
chain: QVQLVESGGGLVQAGGSLRLSCAVSGRTFSTYRMGWFRQAPGKERSFVAAISWSGGSTTYADPVKGRFTISRDNAKNTVYLRMNSLKPEDTAVYYCNDQRGYWGQGTLVTVSSEPKTPKPQPQPQLQPQPNPTTESKSPKSPAPELLGGPSVFLFPPKPKDTLMISRTPEVTCVVVDVSHEDPEVKFNWYVDGVEVHNAKTKPREEQYNSTYRVVSVLTVLHQDWLNGKEYKCKVSNKALPAPIEKTISKAKGQPREPQVYTKPPSREEMTKNQVSLSCLVKGFYPSDIAVEWESNGQPENNYKTTVPVLDSDGSFRLASYLTVDKSRWQQGNVFSCSVMHEALHNHYTQKSLSLSPGK
notes: made in CHO cells; also called VHH9-mono-Fc; hpIgR_221
- Fold change in EC50 [1]: 1.8 fold
- Kd [2]: 12.6 nM
- kon [2]: 133000 M⁻¹ s⁻¹
- Kd [3]: 19.6 nM
- kon [3]: 79300 M⁻¹ s⁻¹
- binding result [4]: no binding (tested: 100 ug/ml (single concentration))
- binding result (hpIgR_D2-D3): no binding (tested: 100 ug/ml (single concentration))
- EC50 [5]: 0.4 nM
- For. Trans. (Fold Incr.) [6]: 24.2 fold
- Rev. Trans (Fold Incr.) [6]: 6.6 fold
- binding result [7]: no binding (tested: 100 ug/ml (single concentration))
- binding result [8]: no binding (tested: 100 ug/ml (single concentration))
- binding result (hpIgR_D3): no binding (tested: 100 ug/ml (single concentration))
- binding result [9]: no binding (tested: 100 ug/ml (single concentration))
- increase in their apical concentration relative to control VHH (MDCK-hpIgR monolayers) [10]: > 10 fold
- Kd [11]: 4 nM
- EC50 [12]: 1.5 nM
- EC50 [13]: 1.5 nM
- Kd [14]: 4 nM
- EC50 [15]: 0.8 nM
- koff [16]: 0.00169 s⁻¹
- koff [17]: 0.00156 s⁻¹
- Transcytosis (Fold Incr.) [18]: 22.4 fold
- EC50 [19]: 1.5 nM
- Kd [20]: 4 nM
